Experimental findings from the RNAGym collection of RNA variant scans (doi:10.1073/pnas.2313332121) are described below.

B1: TPR 5TU (parent)
chain: GGAUCUUCUCGAUCUAACAAAAAAGACAAAUCUGCCACAAAGCUUGAGAGCAUCUUCGGAUGCAGAGGCGGCAGCCUUCGGUGGCGCGAUAGCGCCAACGUUCUCAACUAUGACACGCAAAACGCGUGCUCCGUUGAAUGGAGUUUAUCAUG

Fewer inactive variants are shown than the library holds.

In the data set the parent is B1. The data set can be described thus: polymerase ribozyme fitness, log enrichment relative to wild type (log ratio); higher = more active; in vitro selection for triplet polymerase activity. In outline:
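Mutant libraries were PCR-built and transcribed for each subunit of a heterodimeric triplet polymerase ribozyme and selected for one round in triplicate at −7 °C, frozen, before gel excision of extended constructs and streptavidin-bead capture. Input and output libraries were Illumina-sequenced, keeping genotypes with ≥10 input reads and ≥1 read per output. Fitness is a logarithmic ratio of genotype to wild-type enrichment, in base 2, using inverse-variance-weighted replicate averages.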
Regarding C32G A110G A122C G141C, the “polymerase ribozyme fitness (log ratio)” value is -4.02. As for C54A G141A, the figure is -0.156. As for A49C G94C U104G, the figure is not above -4.2; as for U44G G58U A98G U144A, not above -4.2; as for U15C C57G U82G G94A, 0.771. As for U55A G136A, the figure is -0.833.

For A28G A138C C149A, the “polymerase ribozyme fitness (log ratio)” value was not above -4.2. As for C36A G84U C114A A120U G143U, the figure is -4.19; as for A19G A41C G42C A49C U90C U127A, not above -4.2. As for C57U G58U, the figure is 0.297. Consider U56A C125G, for which the “polymerase ribozyme fitness (log ratio)” value is -1.56.

Turning to A47U G50C, the “polymerase ribozyme fitness (log ratio)” value was -3.22. Take C57A G84U: the “polymerase ribozyme fitness (log ratio)” value is -1.29.

Regarding A60G C85G G94A, the “polymerase ribozyme fitness (log ratio)” value is -0.0985.

In the case of C54G G74C G81A G88C, the “polymerase ribozyme fitness (log ratio)” value was not above -4.2. As for A3U A17U U56A G83U C93G C96G C125G G136C, the “polymerase ribozyme fitness (log ratio)” value was not above -4.2. As for G42A U56A C93U, the figure is not above -4.2; as for A3G G84C, -1.98; as for A16C U44A C69G C75G A91U C114G G117C, not above -4.2.

Regarding U31C A52C C57U G59C C99U U145G, the “polymerase ribozyme fitness (log ratio)” value is -3.63. As for A24U G68C G83U A107C, the figure is not above -4.2; as for A20U A21U, -0.727.

Turning to U4A A22U C63U G67A C75A G94A C96U, the “polymerase ribozyme fitness (log ratio)” value was not above -4.2. Next, A12G U45G A49U A60G U61G A107U U127G: not above -4.2; A37U C38G A97C: -1.69; C69G: -1.51. As for U55A U101G, the figure is -0.568; as for A22U G83C, -1.73. Next, U33C C35G C36G G50C G94U: not above -4.2. As to A39G G59C U104A, the “polymerase ribozyme fitness (log ratio)” value is -3.12.

As to G25C A119C, the “polymerase ribozyme fitness (log ratio)” value is -2.68. Next, A19U U45G G83C U127A: not above -4.2.

With G42A C85U, the “polymerase ribozyme fitness (log ratio)” value is not above -4.2. A19C A40U G46A: the “polymerase ribozyme fitness (log ratio)” value is -0.204. G34U C85A: the “polymerase ribozyme fitness (log ratio)” value is -3.91. Next, A20U A41U G83U A89C C96G A150U: -2.06; A23U U56G G58C G74C G88U: not above -4.2; A28U G50U G59A: not above -4.2.

For U55A U56A G59A, the “polymerase ribozyme fitness (log ratio)” value turned out to be 0.199.

In the case of A52G U144A, the “polymerase ribozyme fitness (log ratio)” value was -0.831.

With U55A U135A, the “polymerase ribozyme fitness (log ratio)” value is -1.74. As for C99G A115G C125G G136C, the figure is -3.89; as for G80C C95U C99A G133U, not above -4.2. As for C57U G59A G67C G94C, the figure is not above -4.2; as for A37C G70A C85A G92A C93A, not above -4.2. As to A60G G70A U78C U130A, the “polymerase ribozyme fitness (log ratio)” value was not above -4.2. Next, C57A G136A: 0.714; C43A A52C G94A: not above -4.2; C51U G92C U135C: -3.1. Next, C38G C123A: -0.288; C72U G143C: -3.23; U15G G71U: -2.28. Next, A12C A40G A41U A52C C54U A66G C95U: not above -4.2; A20C U130G U144C: -4.14; C5G C38A G58U: -1.06. On to C114U C125U, for which the “polymerase ribozyme fitness (log ratio)” value was -3.33.

With U31A C54A G84A C96U C132U, the “polymerase ribozyme fitness (log ratio)” value is -3.31. Next, A24U C63A: 1.21; A23U U45C A66G C85U: not above -4.2. Regarding C57U U61A A89U A106G A122G A150G, the “polymerase ribozyme fitness (log ratio)” value was -3.73. As for C14G U31G, the figure is -2.12; as for U31A C95G U130A, -3.43. Next, A26C C57G G80A: -4.09; A41G G84A A89G C103G: -3.2. Next, A12U A23C C54G U55G C79A G83U G92A G124C U145A: not above -4.2. As to G11A C32U G71A A137G A138G, the “polymerase ribozyme fitness (log ratio)” value was not above -4.2. For the variant G84A U127C U139G A142C, the “polymerase ribozyme fitness (log ratio)” value was -3.93. For the variant A20U A47U A89U C96U G128U, the “polymerase ribozyme fitness (log ratio)” value is not above -4.2.

For C43G C105A C123G U148A, the “polymerase ribozyme fitness (log ratio)” value is not above -4.2. Next, A52U A66G C87G A97G: not above -4.2; A89G G94A G100C: not above -4.2.

Turning to C54U U61A G84U C108G G140U, the “polymerase ribozyme fitness (log ratio)” value was not above -4.2. As for A26U A39C A49G G128A A138G, the figure is not above -4.2. As for A29U C36U G62A U109G, the figure is not above -4.2. As for C36A A121U, the figure is -3.23; as for C14A A23G A26U C43U C54U C57A C96G G143A, not above -4.2; as for A26U C54A U56G C75A C93A U134A, not above -4.2.

For the variant A19U A106G G143C, the “polymerase ribozyme fitness (log ratio)” value is -2.4. Next, G83A C118A C129A: -3.64. Next, G25C U53A U61A C95G: -4.18. Consider C8A G48C U55A, for which the “polymerase ribozyme fitness (log ratio)” value was not above -4.2. Turning to C51U U82A C95U, the “polymerase ribozyme fitness (log ratio)” value is -1.29. In the case of G86C U101A U104G A107C G112C, the “polymerase ribozyme fitness (log ratio)” value was not above -4.2. C96A C105G C125A: the “polymerase ribozyme fitness (log ratio)” value is -2.29.
